In patent publication US20240158475A1:

Legend:
[1] = target: DN-III-NS antigen (produced by Fapon Biotech InC.) (dengue virus); assay: capture ELISA, antibody sample 243-fold dilution
[2] = target: DN-III-NS antigen (produced by Fapon Biotech InC.) (dengue virus); assay: capture ELISA, antibody sample 3-fold dilution
[3] = target: DN-III-NS antigen (produced by Fapon Biotech InC.) (dengue virus); assay: capture ELISA, antibody sample 27-fold dilution
[4] = target: DN-III-NS antigen (produced by Fapon Biotech InC.) (dengue virus); assay: capture ELISA, antibody sample 729-fold dilution
[5] = target: DN-III-NS antigen (produced by Fapon Biotech InC.) (dengue virus); assay: capture ELISA (anti-mouse IgG / antibody / antigen / HRP-mAb), antibody sample Original
[6] = target: DN-III-NS antigen (produced by Fapon Biotech InC.) (dengue virus); assay: capture ELISA, antibody sample 9-fold dilution
[7] = target: DN-III-NS antigen (produced by Fapon Biotech InC.) (dengue virus); assay: capture ELISA, antibody sample 81-fold dilution
[8] = target: DN-III quality control recombinant protein (produced by Fapon Biotech InC.) (dengue virus); assay: BLI, AMC sensor, antibody captured

Binder | OD450 (ref. 630 nm) [1] [OD] | OD450 (ref. 630 nm) [2] [OD] | OD450 (ref. 630 nm) [3] [OD] | OD450 (ref. 630 nm) [4] [OD] | OD450 (ref. 630 nm) [5] [OD] | OD450 (ref. 630 nm) [6] [OD] | OD450 (ref. 630 nm) [7] [OD] | Kd [8] [nM] | koff [8] [s⁻¹] | kon [8] [M⁻¹ s⁻¹]
Mutation 2 (antibody, V domains shown) VH: EVQLQQSGTELVRPGALVKLSCKASGFNIKDYYVHWVKQRPRQGLEWIGWIDPNNGKTLYDPKYQDKASITSDTSTNTAYLQLRSLTSEDTAVYYCVTAYVRFVYWGQGTLVTVSA VL: QIVLTQSPAIMSAFPGERVTMTCSASSSVRYMYWHQQKPGSSPRLLIYDTSNVASGVPVRFSGSGSGTSYSLTISRDEAMDAATYYCQQYSSTPRTFGGGTKLEIKR | 0.204 | 2.25 | 1.56 | 0.158 | 2.27 | 2.13 | 0.689 |  |  | 
Mutation 3 (antibody, V domains shown) VH: EVQLQQSGTELVRPGALVKLSCKASGFNIKLYYVHWVKQRPRQGLEWIGWIDPKNGKTLYDPKCQDKASITSDTSTNTAYLQLRSLTSEDTAVYYCVTAYVRFVYWGQGTLVTVSA VL: QIVLTQSPAIMSAFPGERVTMTCSASSSVVYMYWHQQKPGSSPRLLIYCTSNVASGLPVRFSGSGSGTSYSLTISRDEAMDAATYYCQQRSSTPRTFGGGTKLEIKR |  | 0.879 | 0.031 |  | 1.05 | 0.21 |  |  |  | 
anti-dengue virus NS1 3D5 monoclonal antibody (recombinant, expressed in CHO cells) (antibody, mouse IgG1, kappa, V domains shown) VH: EVQLQQSGTELVRPGALVKLSCKASGFNIKDYYVHWVKQRPRQGLEWIGWIDPNNGKTIYDPKFQDKASITSDTSTNTAYLQLRSLTSEDTAVYYCVTAYVRFVYWGQGTLVTVSA VL: QIVLTQSPAIMSAFPGERVTMTCSASTSVKYMYWHQQKPGSSPRLLIYETSNIASGVPVRFSGSGSGTSYSLTISRDEAMDAATYYCQQWSSYPRTFGGGTKLEIKR | 0.281 | 2.31 | 1.57 | 0.169 | 2.34 | 2.22 | 0.696 | 3.09 | 0.000137 | 44300
Mutation 1 (antibody, V domains shown) VH: EVQLQQSGTELVRPGALVKLSCKASGFNIKDYYVHWVKQRPRQGLEWIGWIDPENGKTLYDPKFQDKASITSDTSTNTAYLQLRSLTSEDTAVYYCVTAYVRFVYWGQGTLVTVSA VL: QIVLTQSPAIMSAFPGERVTMTCSASSSVRYMYWHQQKPGSSPRLLIYDTSNVASGVPVRFSGSGSGTSYSLTISRDEAMDAATYYCQQWSSTPRTFGGGTKLEIKR | 0.361 | 2.38 | 1.9 | 0.188 | 2.37 | 2.29 | 0.918 | 1.07 | 4.03e-05 | 37700
Mutation 1-20 (antibody, V domains shown) VH: EVQLQQSGTELVRPGALVKLSCKASGFNIKDYYVHWVKQRPRQGLEWIGWIDPENGKTLYDPKFQDKASITSDTSTNTAYLQLRSLTSEDTAVYYCVSAYYRFVYWGQGTLVTVSA VL: QIVLTQSPAIMSAFPGERVTMTCSASSSVRYMYWHQQKPGSSPRLLIYDTSNVASGVPVRFSGSGSGTSYSLTISRDEAMDAATYYCQQWSSTPRTFGGGTKLEIKR |  |  |  |  |  |  |  | 0.41 | 1.66e-05 | 40900
Mutation 1-17 (antibody, V domains shown) VH: EVQLQQSGTELVRPGALVKLSCKASGFNIKDYYLHWVKQRPRQGLEWIGWIDPENGKTIYDPKFQDKASITSDTSTNTAYLQLRSLTSEDTAVYYCVSAYFRFVYWGQGTLVTVSA VL: QIVLTQSPAIMSAFPGERVTMTCSASTSVRYMYWHQQKPGSSPRLLIYDTSNIASGVPVRFSGSGSGTSYSLTISRDEAMDAATYYCQQWSSFPRTFGGGTKLEIKR |  |  |  |  |  |  |  | 0.78 | 2.71e-05 | 34600
Mutation 1-19 (antibody, V domains shown) VH: EVQLQQSGTELVRPGALVKLSCKASGFNIKDYYIHWVKQRPRQGLEWIGWIDPENGKTIYDPKFQDKASITSDTSTNTAYLQLRSLTSEDTAVYYCVSAYFRFVYWGQGTLVTVSA VL: QIVLTQSPAIMSAFPGERVTMTCSASTSVRYMYWHQQKPGSSPRLLIYDTSNVASGVPVRFSGSGSGTSYSLTISRDEAMDAATYYCQQWSSYPRTFGGGTKLEIKR |  |  |  |  |  |  |  | 4.1 | 4.34e-05 | 31400
Mutation 4 (antibody, V domains shown) VH: EVQLQQSGTELVRPGALVKLSCKASGFNIKRYYVHWVKQRPRQGLEWIGWIDPRNGKTLYDPKVQDKASITSDTSTNTAYLQLRSLTSEDTAVYYCVTAYVRFVYWGQGTLVTVSA VL: QIVLTQSPAIMSAFPGERVTMTCSASSSVIYMYWHQQKPGSSPRLLIYWTSNVASGYPVRFSGSGSGTSYSLTISRDEAMDAATYYCQQVSSTPRTFGGGTKLEIKR |  | 0.102 |  |  | 0.892 | 0.014 |  |  |  | 
Mutation 1-21 (antibody, V domains shown) VH: EVQLQQSGTELVRPGALVKLSCKASGFNIKDYYVHWVKQRPRQGLEWIGWIDPENGKTIYDPKFQDKASITSDTSTNTAYLQLRSLTSEDTAVYYCVSAYFRFVYWGQGTLVTVSA VL: QIVLTQSPAIMSAFPGERVTMTCSASSSVRYMYWHQQKPGSSPRLLIYDTSNLASGVPVRFSGSGSGTSYSLTISRDEAMDAATYYCQQWSSFPRTFGGGTKLEIKR |  |  |  |  |  |  |  | 0.66 | 1.31e-05 | 32300
Mutation 1-18 (antibody, V domains shown) VH: EVQLQQSGTELVRPGALVKLSCKASGFNIKDYYVHWVKQRPRQGLEWIGWIDPENGKTLYDPKFQDKASITSDTSTNTAYLQLRSLTSEDTAVYYCVSAYVRFVYWGQGTLVTVSA VL: QIVLTQSPAIMSAFPGERVTMTCSASSSVRYMYWHQQKPGSSPRLLIYDTSNLASGVPVRFSGSGSGTSYSLTISRDEAMDAATYYCQQWSSTPRTFGGGTKLEIKR |  |  |  |  |  |  |  | 0.9 | 3.99e-05 | 44500
Mutation 1-22 (antibody, V domains shown) VH: EVQLQQSGTELVRPGALVKLSCKASGFNIKDYYIHWVKQRPRQGLEWIGWIDPENGKTLYDPKFQDKASITSDTSTNTAYLQLRSLTSEDTAVYYCVSAYYRFVYWGQGTLVTVSA VL: QIVLTQSPAIMSAFPGERVTMTCSASTSVRYMYWHQQKPGSSPRLLIYDTSNLASGVPVRFSGSGSGTSYSLTISRDEAMDAATYYCQQWSSFPRTFGGGTKLEIKR |  |  |  |  |  |  |  | 0.87 | 3.2e-05 | 48400
